US20150337049A1 (Genmab, published 2015)
Substitutions are numbered along the chain they refer to. In names and notes the source's numbering stands.

B1: bsIgG1-CD3×HER2-DANQ (IgG1-huCLB-T3/4×HER2-169 with D265A/N297Q) (bispecific antibody)
heavy 1: EVQLVESGGGLVKPGGSLRLSCAASGFTFSSYGMFWVRQAPGKGLEWVATISRYSRYIYYPDSVKGRFTISRDNAKNSLYLQMNSLRAEDTAVYYCARRPLYGSSPDYWGQGTLVTVSSASTKGPSVFPLAPSSKSTSGGTAALGCLVKDYFPEPVTVSWNSGALTSGVHTFPAVLQSSGLYSLSSVVTVPSSSLGTQTYICNVNHKPSNTKVDKRVEPKSCDKTHTCPPCPAPELLGGPSVFLFPPKPKDTLMISRTPEVTCVVVAVSHEDPEVKFNWYVDGVEVHNAKTKPREEQYQSTYRVVSVLTVLHQDWLNGKEYKCKVSNKALPAPIEKTISKAKGQPREPQVYTLPPSREEMTKNQVSLTCLVKGFYPSDIAVEWESNGQPENNYKTTPPVLDSDGSFLLYSKLTVDKSRWQQGNVFSCSVMHEALHNHYTQKSLSLSPGK
VL 1: EIVLTQSPATLSLSPGERATLSCSASSSVTYVHWYQQKPGQAPRLLIYDTSKLASGIPARFSGSGSGTDFTLTISSLEPEDFAVYYCFQGSGYPLTFGSGTKLEMR
heavy 2: QVQLVQSGAEVKKPGASVKVSCKASGYTFTNYGISWVRQAPGQGLEWMGWLSAYSGNTIYAQKLQGRVTMTTDTSTTTAYMELRSLRSDDTAVYYCARDRIVVRPDYFDYWGQGTLVTVSSASTKGPSVFPLAPSSKSTSGGTAALGCLVKDYFPEPVTVSWNSGALTSGVHTFPAVLQSSGLYSLSSVVTVPSSSLGTQTYICNVNHKPSNTKVDKRVEPKSCDKTHTCPPCPAPELLGGPSVFLFPPKPKDTLMISRTPEVTCVVVAVSHEDPEVKFNWYVDGVEVHNAKTKPREEQYQSTYRVVSVLTVLHQDWLNGKEYKCKVSNKALPAPIEKTISKAKGQPREPQVYTLPPSREEMTKNQVSLTCLVKGFYPSDIAVEWESNGQPENNYKTTPPVLDSDGSFFLYSRLTVDKSRWQQGNVFSCSVMHEALHNHYTQKSLSLSPGK
VL 2: EIVLTQSPATLSLSPGERATLSCRASQSVSSYLAWYQQKPGQAPRLLIYDASNRATGIPARFSGSGSGTDFTLTISSLEPEDFAVYYCQQRSNWPRTFGQGTKVEIK
B2: bsIgG1-CD3×HER2-LALA (IgG1-huCLB-T3/4×HER2-169 with L234A/L235A) (bispecific antibody)
heavy 1: B1 heavy 1 with L236A, L237A, A267D, Q299N
VL 1: B1 VL 1
heavy 2: B1 heavy 2 with L238A, L239A, A269D, Q301N
VL 2: B1 VL 2
B3: bsIgG1-CD3×HER2-… (IgG1-huCLB-T3/4×HER2-169 with L234F/L235E/D265A/N297Q/P331S) (bispecific antibody)
heavy 1: B1 heavy 1 with L236F, L237E, P333S
VL 1: B1 VL 1
heavy 2: B1 heavy 2 with L238F, L239E, P335S
VL 2: B1 VL 2
B4: bsIgG1-CD3×HER2-LFLEDA (IgG1-huCLB-T3/4×HER2-169 with L234F/L235E/D265A) (bispecific antibody)
heavy 1: B1 heavy 1 with L236F, L237E, Q299N
VL 1: B1 VL 1
heavy 2: B1 heavy 2 with L238F, L239E, Q301N
VL 2: B1 VL 2
notes: also called huCLB-T3/4×HER2-LFLEDA; copies: 1 + 1 + 1 + 1
B5: bsIgG1-CD3×HER2-N297Q (IgG1-huCLB-T3/4×HER2-169 with N297Q) (bispecific antibody)
heavy 1: not shown
VL 1: B1 VL 1
heavy 2: not shown
VL 2: B1 VL 2
notes: also called NQ
B6: bsIgG1-CD3×HER2-LFLEPS (IgG1-huCLB-T3/4×HER2-169 with L234F/L235E/P331S) (bispecific antibody)
heavy 1: B1 heavy 1 with L236F, L237E, A267D, Q299N, P333S
VL 1: B1 VL 1
heavy 2: B1 heavy 2 with L238F, L239E, A269D, Q301N, P335S
VL 2: B1 VL 2
B7: bsIgG1-CD3×HER2-DAPS (IgG1-huCLB-T3/4×HER2-169 with D265A/P331S) (bispecific antibody)
heavy 1: B1 heavy 1 with Q299N, P333S
VL 1: B1 VL 1
heavy 2: B1 heavy 2 with Q301N, P335S
VL 2: B1 VL 2
B8: bsIgG1-CD3×HER2-LFLE (IgG1-huCLB-T3/4×HER2-169 with L234F/L235E) (bispecific antibody)
heavy 1: B1 heavy 1 with L236F, L237E, A267D, Q299N
VL 1: B1 VL 1
heavy 2: B1 heavy 2 with L238F, L239E, A269D, Q301N
VL 2: B1 VL 2
B9: bsIgG1-CD3×HER2-LFLENQ (IgG1-huCLB-T3/4×HER2-169 with L234F/L235E/N297Q) (bispecific antibody)
heavy 1: B1 heavy 1 with L236F, L237E, A267D
VL 1: B1 VL 1
heavy 2: B1 heavy 2 with L238F, L239E, A269D
VL 2: B1 VL 2

These binders were tested against T1, HER2 on HER2-positive AU565 cells (human, UniProt P04626 23-1255) (assay: FACS, AU565 cells).
T1 construct: whole, on cells
Experimental: Cells (1×10^5 cells/well) were incubated in polystyrene 96-well round-bottom plates (Greiner bio-one 650101) with serial dilutions of antibody preparations (range 2 to 10000 ng/mL in 4-fold dilutions for Jurkat cells and range 1 to 3000 ng/mL in 4-fold dilutions for on AU565 cells) in 100 μL PBS/0.1% BSA/0.02% azide at 4° C. for 30 min.
After washing twice in PBS/0.1% BSA/0.02% azide, cells were incubated in 100 μL with secondary antibody at 4° C. for 30 min. As a secondary antibody, R-Phycoerythrin (PE)-conjugated goat-anti-human IgG F(ab′)₂ (109-116-098, Jackson ImmunoResearch Laboratories, Inc., West Grove, Pa.) diluted 1/100 in PBS/0.1% BSA/0.02% azide, was used for all experiments. Next, cells were washed twice in PBS/0.1% BSA/0.02% azide, resuspended in 150 μL PBS/0.1% BSA/0.02% azide and analyzed on a FACS CantoII (BD Biosciences). Binding curves were analyzed using non-linear regression (sigmoidal dose-response with variable slope) using GraphPad Prism V5.04 software (GraphPad Software, San Diego, Calif., USA).

Row | Binder | binding result
1 | B1 | binds
2 | B2 | binds
3 | B3 | binds
4 | B4 | binds
5 | B5 | binds
6 | B6 | binds
7 | B7 | binds
8 | B8 | binds
9 | B9 | binds

These binders were tested against T2, C1q (from 3% pooled human serum) (human, UniProt P02745 23-245; P02746 28-253; P02747 29-245) (assay: ELISA, antibody coated, 3% pooled human serum, anti-C1q detection).
T2 construct: Native C1q of pooled human serum, detected with rabbit anti-human C1q
Experimental: Plates were washed and blocked with PBS supplemented with 0.025% Tween 20 and 0.1% gelatine. […] Detection was performed by addition of 1 mg/mL 2,2′-azino-bis(3-ethylbenzothiazoline-6-sulfonic acid) (ABTS; Roche, Mannheim, Germany) for about 30 min. The reaction was stopped by the addition of 100 μL 2% oxalic acid. Absorbance was measured at 405 nm in a microplate reader (Biotek, Winooski, Vt.). Log transformed data were analyzed by fitting sigmoidal dose-response curves with variable slope using GraphPad Prism software.

Row | Binder | binding result
10 | B1 | no binding (tested: coated at 7-30000 ng/mL)
11 | B2 | no binding (tested: coated at 7-30000 ng/mL)
12 | B3 | no binding (tested: coated at 7-30000 ng/mL)
13 | B4 | no binding (tested: coated at 7-30000 ng/mL)
14 | B5 | no binding (tested: coated at 7-30000 ng/mL)
15 | B6 | no binding (tested: coated at 7-30000 ng/mL)
16 | B7 | no binding (tested: coated at 7-30000 ng/mL)
17 | B8 | no binding (tested: coated at 7-30000 ng/mL)
18 | B9 | no binding (tested: coated at 7-30000 ng/mL)
